This test addresses T1, β-subunit of wild-type CPC acylase derived from Pseudomonas sp. SE83 (Pseudomonas sp. SE83, UniProt P15558 240-774).
T1 construct: About 58 kDa subunit of 535 amino acids; also called AcyII β-subunit; CPC acylase β-subunit
T1 sequence: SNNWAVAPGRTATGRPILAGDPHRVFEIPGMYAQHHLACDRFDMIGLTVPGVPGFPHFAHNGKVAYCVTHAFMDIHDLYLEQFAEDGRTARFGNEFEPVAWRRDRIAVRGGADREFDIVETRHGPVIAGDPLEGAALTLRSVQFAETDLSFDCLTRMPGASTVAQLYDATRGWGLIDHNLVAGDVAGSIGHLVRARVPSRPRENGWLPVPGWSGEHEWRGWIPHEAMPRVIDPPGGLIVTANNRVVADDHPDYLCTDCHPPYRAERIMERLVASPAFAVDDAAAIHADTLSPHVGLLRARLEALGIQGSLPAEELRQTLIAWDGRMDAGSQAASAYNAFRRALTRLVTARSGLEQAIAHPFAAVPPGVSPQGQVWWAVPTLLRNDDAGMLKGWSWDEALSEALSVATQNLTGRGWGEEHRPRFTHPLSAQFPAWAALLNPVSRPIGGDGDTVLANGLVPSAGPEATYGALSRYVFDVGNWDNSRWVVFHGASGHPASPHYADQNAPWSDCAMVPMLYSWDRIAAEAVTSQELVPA
In words: non-denaturing PAGE and MALDI-TOF of the purified enzyme (single species of about 83 kDa) against denaturing SDS-PAGE (bands of 25 kDa and 58 kDa). From the text: Further, the active fraction of wild-type CPC acylase obtained in Example <2-1> was subjected to non-denaturing PAGE and Coomasie blue staining. As a result, a single band was detected at a position corresponding to the molecular weight of about 83 kDa, which means that the wild-type CPC acylase was purely purified (FIGS. 11a to 11c). Together with the result of non-denaturing PAGE, MALDI-TOF mass spectrophotometry analysis confirmed that the molecular weight of purified enzyme (that is, the active CPC acylase) is about 83 kDa. Furthermore, about 25 kDa of band corresponding to α-subunit and about 58 kDa of band corresponding to β-subunit were detected by denaturing SDS-PAGE.

B1: α-subunit of wild-type CPC acylase derived from Pseudomonas sp. SE83 (enzyme)
chain: TMAAKTDREALQAALPPLSGSLSIPGLSAPVRVQRDGWGIPHIKASGEADAYRALGFVHAQDRLFQMELTRRKALGRAAEWLGAEAAEADILVRRLGMEKVCRRDFEALGAEAKDMLRAYVAGVNAFLASGAPLPIEYGLLGAEPEPWEPWHSIAVMRRLGLLMGSVWFKLWRMLALPVVGAANALKLRYDDGGQDLLCIPPGVEAERLEADLAALRPAVDALLKAMGG
notes: About 25 kDa subunit of 229 amino acids; also called AcyII α-subunit; CPC acylase α-subunit
As for B1, the binding result is given as “binds”.

For the origin of these results see patent US20070207519A1 (SANDOZ, published 2007).
